Data on 3 molecules can be found in PMC5705597, “Molecular architecture of potassium chloride co-transporter KCC2” (Scientific Reports, 2017).

Test [1] addresses T1, KCC2 (Homo sapiens, UniProt Q9H2X9).
T1 construct: gene SLC12A5; N-terminal tagged Flag-Avi-His-KCC2, residues 1–1116 of NP_065759 (human KCC2 isoform 2), purified full length
T1 sequence (Q9H2X9 1-1116 isoform Q9H2X9-2): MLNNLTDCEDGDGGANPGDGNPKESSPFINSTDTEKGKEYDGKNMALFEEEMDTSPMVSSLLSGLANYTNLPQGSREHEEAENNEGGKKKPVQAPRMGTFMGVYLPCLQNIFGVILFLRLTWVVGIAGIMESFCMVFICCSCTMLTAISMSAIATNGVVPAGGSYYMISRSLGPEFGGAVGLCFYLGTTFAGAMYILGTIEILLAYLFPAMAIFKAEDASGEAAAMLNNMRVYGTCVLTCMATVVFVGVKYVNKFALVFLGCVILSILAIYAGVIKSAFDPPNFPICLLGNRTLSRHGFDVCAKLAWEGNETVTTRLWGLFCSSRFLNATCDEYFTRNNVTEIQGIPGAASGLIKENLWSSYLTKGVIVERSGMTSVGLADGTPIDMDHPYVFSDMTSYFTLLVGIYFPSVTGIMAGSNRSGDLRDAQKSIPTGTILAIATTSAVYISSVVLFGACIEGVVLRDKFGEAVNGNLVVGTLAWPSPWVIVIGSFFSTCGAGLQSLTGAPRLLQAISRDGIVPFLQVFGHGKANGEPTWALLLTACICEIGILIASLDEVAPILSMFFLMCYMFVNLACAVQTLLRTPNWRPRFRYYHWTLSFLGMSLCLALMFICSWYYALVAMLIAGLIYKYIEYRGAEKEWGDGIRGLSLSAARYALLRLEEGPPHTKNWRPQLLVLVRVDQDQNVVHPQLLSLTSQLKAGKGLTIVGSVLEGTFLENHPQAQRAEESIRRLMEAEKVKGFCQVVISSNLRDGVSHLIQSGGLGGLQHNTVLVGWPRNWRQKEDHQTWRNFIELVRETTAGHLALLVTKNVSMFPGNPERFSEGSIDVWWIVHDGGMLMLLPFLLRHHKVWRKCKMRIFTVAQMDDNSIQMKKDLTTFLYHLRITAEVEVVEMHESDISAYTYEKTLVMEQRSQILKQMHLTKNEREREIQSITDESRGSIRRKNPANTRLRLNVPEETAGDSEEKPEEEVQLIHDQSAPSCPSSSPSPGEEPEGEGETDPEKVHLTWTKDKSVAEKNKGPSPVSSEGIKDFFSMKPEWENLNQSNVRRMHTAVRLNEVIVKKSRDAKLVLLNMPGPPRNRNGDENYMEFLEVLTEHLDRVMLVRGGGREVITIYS
The test is described as follows: SPR (Biacore S200), steady-state Langmuir fit on immobilized purified KCC2. In kind it is binding. The source says:
SPR (Biacore S200), steady-state Langmuir fit on immobilized purified KCC2 on KCC2 | Concentration-dependent binding of VU0463271 (blue diamonds) and non-specific control compound (red circles) on immobilized purified KCC2.
Background: Surface plasmon resonance follows binding to a sensor surface in real time, without labels.

Test [2] concerns the target Flag-Avi-His-KCC2 (human potassium chloride co-transporter KCC2, N-terminally tagged) (human) (UniProt Q9H2X9). The test is described as follows: cross-linking; purified KCC2 (5 µg) with glutaraldehyde 0-0.1% for 30 min at 4 °C, with or without DTT; SDS-PAGE and Western blot. Background: A western blot detects proteins with antibodies after separation by electrophoresis.

Test [3] shares this target. Briefly: SEC; 50 µl purified KCC2 at 1 mg/ml on Superdex 200 Increase 5/150 GL, PBS, CALX-R3 1.5 mM, DDM 0.6 mM; fractions analysed by Clear Native PAGE and Western blot.
Test [4] has the same target. The test is described as follows: negative stain electron microscopy; gel filtration fractions of KCC2 monomers and dimers, 40 µg/ml in PBS, CALX-R3 1.5 mM, DDM 0.6 mM; 2% uranyl acetate; 2-D classes and 3-D models.
The target is the same in test [5]. Briefly: native gel or EMSA; purified KCC2 in CALX-R3/DDM on 4-15% Clear Native PAGE (cathode buffer 7.5 mM imidazole, 0.05% deoxycholate, 0.01% DDM), 4 °C, Western blot with KCC2 antibody; with or without a freeze-thaw cycle. (In general: Mobility shift assays separate free from complexed probe on a gel.)
In test [6] the target is T2, recombinant mouse KCC2 (mouse), Q91V14.
T2 chain: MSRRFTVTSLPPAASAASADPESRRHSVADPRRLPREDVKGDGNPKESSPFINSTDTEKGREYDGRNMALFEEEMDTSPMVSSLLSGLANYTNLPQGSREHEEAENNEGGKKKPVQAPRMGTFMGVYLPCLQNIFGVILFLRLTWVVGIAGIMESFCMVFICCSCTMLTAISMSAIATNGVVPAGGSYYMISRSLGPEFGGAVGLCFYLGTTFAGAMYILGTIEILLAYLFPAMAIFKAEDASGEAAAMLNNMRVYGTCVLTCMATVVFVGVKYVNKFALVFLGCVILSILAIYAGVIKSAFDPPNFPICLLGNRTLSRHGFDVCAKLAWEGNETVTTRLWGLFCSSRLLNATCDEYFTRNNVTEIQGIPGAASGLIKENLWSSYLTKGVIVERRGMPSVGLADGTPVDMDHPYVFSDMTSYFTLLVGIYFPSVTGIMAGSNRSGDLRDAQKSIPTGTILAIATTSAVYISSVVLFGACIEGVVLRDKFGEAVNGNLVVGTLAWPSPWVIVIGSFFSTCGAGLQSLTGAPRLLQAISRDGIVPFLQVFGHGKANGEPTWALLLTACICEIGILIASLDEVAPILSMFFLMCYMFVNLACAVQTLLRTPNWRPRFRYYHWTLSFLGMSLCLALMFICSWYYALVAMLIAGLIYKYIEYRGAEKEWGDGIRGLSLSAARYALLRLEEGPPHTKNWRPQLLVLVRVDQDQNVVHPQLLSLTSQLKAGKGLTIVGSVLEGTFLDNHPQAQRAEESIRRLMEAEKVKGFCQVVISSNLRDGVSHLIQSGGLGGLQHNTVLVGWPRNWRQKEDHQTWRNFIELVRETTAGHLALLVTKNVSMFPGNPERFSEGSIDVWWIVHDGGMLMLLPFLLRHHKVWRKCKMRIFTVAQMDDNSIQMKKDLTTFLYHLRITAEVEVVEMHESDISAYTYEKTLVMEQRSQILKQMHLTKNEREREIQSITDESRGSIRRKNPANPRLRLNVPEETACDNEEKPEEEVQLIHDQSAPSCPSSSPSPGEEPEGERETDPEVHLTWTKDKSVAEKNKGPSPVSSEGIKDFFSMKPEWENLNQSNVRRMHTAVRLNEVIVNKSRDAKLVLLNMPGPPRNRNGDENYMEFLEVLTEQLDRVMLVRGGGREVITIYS
The description is as above. Particulars: remark: other sources report otherwise.

In turn, `Cc1csc(N(C(=O)CSc2ccc(-c3ccccc3)nn2)C2CC2)n1` [VU0463271] gave a dissociation constant (Kd) in test [1] of 3 ± 2 µM.
Turning to “Flag-Avi-His-KCC2 (human potassium chloride co-transporter KCC2, N-terminally tagged) (from UniProt Q9H2X9-2 1-1116) (natural protein)”, the stoichiometry N in test [2], in test [3], in test [4] and in test [5] was 2 in each case.

B1: recombinant mouse KCC2, Q91V14 1-1138 (natural protein)
chain: T2 chain
As to B1, the stoichiometry N in test [6] came out at 2.

In general, Kd refers to the free concentration of one partner at which half of the binding sites on the other are occupied at equilibrium, for simple one-to-one binding. Read a high Kd as a looser complex. For orientation: stoichiometry N means the number of molecules, sites or subunits per partner or assembly.
